US20170210813A1 (Regeneron, published 2017)

T1: human PDGFRb.mFc (human)
T1 construct: Soluble dimeric construct with mouse Fc; also called hPDGFRb.mFc; soluble human PDGFR-beta.mFc
T1 chain: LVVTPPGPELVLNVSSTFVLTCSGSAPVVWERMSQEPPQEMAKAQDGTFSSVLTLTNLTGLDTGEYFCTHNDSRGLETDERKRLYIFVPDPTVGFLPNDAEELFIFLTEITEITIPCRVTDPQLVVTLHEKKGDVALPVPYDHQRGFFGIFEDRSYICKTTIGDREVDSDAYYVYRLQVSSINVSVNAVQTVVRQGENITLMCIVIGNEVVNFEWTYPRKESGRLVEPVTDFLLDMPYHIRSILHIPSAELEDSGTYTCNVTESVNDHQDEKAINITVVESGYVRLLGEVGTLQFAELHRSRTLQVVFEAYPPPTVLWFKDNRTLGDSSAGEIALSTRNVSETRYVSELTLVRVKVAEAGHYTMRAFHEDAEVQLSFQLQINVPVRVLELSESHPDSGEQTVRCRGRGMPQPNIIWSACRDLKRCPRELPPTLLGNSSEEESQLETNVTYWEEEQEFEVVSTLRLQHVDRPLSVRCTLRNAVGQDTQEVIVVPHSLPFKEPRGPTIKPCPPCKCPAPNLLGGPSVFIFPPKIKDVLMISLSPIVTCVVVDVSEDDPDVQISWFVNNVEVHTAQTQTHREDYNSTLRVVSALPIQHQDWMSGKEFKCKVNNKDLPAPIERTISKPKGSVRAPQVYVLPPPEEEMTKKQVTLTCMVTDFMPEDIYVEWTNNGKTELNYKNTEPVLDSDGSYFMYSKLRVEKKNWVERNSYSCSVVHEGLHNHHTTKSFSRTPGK

T2: Macaca fascicularis PDGFRb.mmh (Macaca fascicularis)
T2 construct: Soluble monomeric construct; also called mfPDGFRb.mmh
T2 chain: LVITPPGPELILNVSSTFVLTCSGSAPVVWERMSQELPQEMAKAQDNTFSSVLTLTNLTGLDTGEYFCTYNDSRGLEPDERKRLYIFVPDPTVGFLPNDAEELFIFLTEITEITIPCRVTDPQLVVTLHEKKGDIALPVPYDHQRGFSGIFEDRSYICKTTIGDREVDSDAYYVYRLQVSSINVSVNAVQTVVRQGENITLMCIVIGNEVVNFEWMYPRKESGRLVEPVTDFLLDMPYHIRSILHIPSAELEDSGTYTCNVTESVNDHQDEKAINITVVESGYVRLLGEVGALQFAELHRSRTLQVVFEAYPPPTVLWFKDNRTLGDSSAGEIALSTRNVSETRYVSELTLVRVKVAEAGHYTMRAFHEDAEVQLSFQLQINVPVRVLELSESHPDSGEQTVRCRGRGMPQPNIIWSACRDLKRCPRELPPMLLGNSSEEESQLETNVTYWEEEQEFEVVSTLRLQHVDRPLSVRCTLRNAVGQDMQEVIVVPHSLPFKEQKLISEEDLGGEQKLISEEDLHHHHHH


Assays:
hPDGFRb.mmh [1] = biological target: T3, hPDGFRb.mmh (human, UniProt P09619 33-531); assay: blocking ELISA, biot-hPDGFRb.mmh to coated PDGF-BB
T3 construct: Soluble monomeric construct; also called soluble human PDGFR-beta.mmh
Protocol: The equilibrated PDGFR-beta/antibody solutions were added to ligand-coated plates, allowed to incubate for 1 hr, and washed. Levels of bound biot-hPDGFR-beta.mmh were detected using HRP conjugated streptavidin. Data were analyzed using Prism software and IC₅₀ values were calculated as the amount of antibody required to achieve 50% reduction of hPDGFR-beta-mmh bound to ligand. Maximum blocking values were also calculated and reflect the ability of the antibody to block relative to baseline. The absorbance measured at the constant amount of 250 pM biot-hPDGFR-beta-mmh on the dose curve is defined as 0% blocking and the absorbance with no added PDGFR-beta is defined as 100%. The absorbance of the wells containing the highest antibody concentration determined the maximum blocking percent.

hPDGFRb.mmh [2] = biological target: T3, hPDGFRb.mmh; assay: SPR, mAb captured, 25 C
Protocol: (§1) Antibodies, expressed as either mouse Fc (prefix H1M; H2M) or human Fc (prefix H4H), were captured on their respective anti-Fc sensor surfaces (Mab capture format). […] Kinetic association (kₐ) and dissociation (kd) rate constants were determined by processing and fitting the data to a 1:1 binding model using Scrubber 2.0 curve fitting software.

human PDGFRb.mFc = biological target: T1, human PDGFRb.mFc; assay: SPR, mAb captured, 25 C
Protocol: as §1

[3] = biological target: T2, Macaca fascicularis PDGFRb.mmh; assay: SPR, mAb captured, 25 C
Protocol: as §1

[4] = biological target: full length human PDGFR-beta on HEK293 cells (human, UniProt P09619 33-1106); assay: cell-based or functional assay
hPDGFRb.mmh [5] = biological target: T3, hPDGFRb.mmh; assay: SPR, mAb captured, 37 C
Protocol: as §1

human PDGFRb.hFc [6] = biological target: T4, human PDGFRb.hFc (human); assay: SPR, mAb captured, 25 C
T4 construct: Soluble dimeric construct with human Fc; also called hPDGFRb.hFc
Protocol: as §1

[7] = biological target: T2, Macaca fascicularis PDGFRb.mmh; assay: SPR, mAb captured, 37 C
Protocol: as §1

human PDGFRb.hFc [8] = biological target: T4, human PDGFRb.hFc; assay: SPR, mAb captured, 37 C
Protocol: as §1

| Binder | % Maximum Blocking (hPDGFRb.mmh [1]) | IC50 (hPDGFRb.mmh [1]) | Kd (hPDGFRb.mmh [2]) | koff (hPDGFRb.mmh [2]) | kon (hPDGFRb.mmh [2]) | t1/2 (hPDGFRb.mmh [2]) | Kd [3] | koff [3] | kon [3] | t1/2 [3] | IC50, blocking PDGF-BB (250 pM) activation, SRE-luciferase [4] | IC50, blocking PDGF-DD (400 pM) activation, SRE-luciferase [4] | Kd (hPDGFRb.mmh [5]) | koff (hPDGFRb.mmh [5]) | kon (hPDGFRb.mmh [5]) | t1/2 (hPDGFRb.mmh [5]) | Kd (human PDGFRb.hFc [6]) | koff (human PDGFRb.hFc [6]) | kon (human PDGFRb.hFc [6]) | t1/2 (human PDGFRb.hFc [6]) | also measured |
| --- | --- | --- | --- | --- | --- | --- | --- | --- | --- | --- | --- | --- | --- | --- | --- | --- | --- | --- | --- | --- | --- |
| H1M3305N (antibody, mouse IgG1, V domains shown, human variable domains with mouse constant domains, mouse IgG1 Fc (H1M prefix)) VH: QLQLQESGPGLVKPSETLSLTCIVSGGSISSSSYYWGWIRQPPGKGLEWIGSLYYSGITFYNPSLKSRVTISVDTSKNQFSLTLTSVTAADTAVFYCARHRVMASSPFDHWGQGTLVTVSS VL: not shown | 83% | 0.085 nM | 0.808 nM | 2.52e-05 s⁻¹ | 31200 M⁻¹ s⁻¹ | 458 min | 0.816 nM | 4.16e-05 s⁻¹ | 51000 M⁻¹ s⁻¹ | 278 min | 8.5e-09 M | 1.9e-10 M | 0.88 nM | 0.000102 s⁻¹ | 116000 M⁻¹ s⁻¹ | 113 min | – | – | – | – | Kd (human PDGFRb.mFc): ≤ 0.00617 nM; koff (human PDGFRb.mFc): ≤ 1e-06 s⁻¹; kon (human PDGFRb.mFc): 162000 M⁻¹ s⁻¹; t1/2 (human PDGFRb.mFc): 192 h |
| H1M3299N (antibody, mouse IgG1, V domains shown, mouse IgG1 Fc (H1M prefix)) VH: QVQLVESGGGVVQPGRSLRLSCAASGFTFSSYGLHWVRQAPGKGLEWVALISNVGSNKYYADSVKGRFTISRDNSKNSLFLQMNSLRAEDTAVYYCAKGADYYYYGMDVWGQGTTVTVSS VL: not shown | 67% | 7.6 nM | 43.5 nM | 0.00092 s⁻¹ | 21100 M⁻¹ s⁻¹ | 13 min | – | – | – | – | 5.6e-10 M | 4.2e-10 M | 68.6 nM | 0.00217 s⁻¹ | 31600 M⁻¹ s⁻¹ | 5 min | – | – | – | – | Kd (human PDGFRb.mFc): 6.35 nM; koff (human PDGFRb.mFc): 0.000165 s⁻¹; kon (human PDGFRb.mFc): 25900 M⁻¹ s⁻¹; t1/2 (human PDGFRb.mFc): 1.17 h; binding result [3]: no binding |
| H4H3105S (antibody, human IgG4, V domains shown, human IgG4 Fc (H4H prefix)) VH: QVQLVESGGSLVQPGGSLRLACTASGFTFSSYWMSWVRQAPGKGLEWVANIQQDENEKYYVDSVKGRFSISRDNAKKSLYLQMNSLRVEDTAVYFCARDLVPPRQGDYYHYFGMDVWGQGTTVTVSS VL: DIQLTQSPSTLSASVGDRVTITCRASQSISDWLAWYQQKPGKAPNLLIYKASTLESGVPSRFSGSGSGTEFTLTISSLQPDDFATYYCQQYNSYSRTFGQGTKVEIK | 86% | 0.16 nM | 3.19 nM | 0.000784 s⁻¹ | 246000 M⁻¹ s⁻¹ | 15 min | 5.2 nM | 0.000932 s⁻¹ | 180000 M⁻¹ s⁻¹ | 12 min | 5.8e-10 M | 5.1e-10 M | 11.3 nM | 0.00354 s⁻¹ | 314000 M⁻¹ s⁻¹ | 3 min | 0.91 nM | 0.000225 s⁻¹ | 247000 M⁻¹ s⁻¹ | 51 min | Kd [7]: 14.4 nM; koff [7]: 0.00416 s⁻¹; kon [7]: 289000 M⁻¹ s⁻¹; t1/2 [7]: 3 min; Kd (human PDGFRb.hFc [8]): 3 nM; koff (human PDGFRb.hFc [8]): 0.000824 s⁻¹; kon (human PDGFRb.hFc [8]): 280000 M⁻¹ s⁻¹; t1/2 (human PDGFRb.hFc [8]): 14 min |
| H4H3106S (antibody, human IgG4, V domains shown, human IgG4 Fc (H4H prefix)) VH: QVQLVESGGGLVQPGGSLRLSCAASGFTFSSYWMSWVRQVPGKGLEWVANMNQDGTEKYYVDSVKGRLTISRENVKNSLYLQMNGLRAEDTAVYYCARDLVPPRQGDYYYYFGMDVWGHGTMVTVSS VL: AIQMTQSPSTLSASVGDIVTITCRASQSISDWLAWYQQKPGKAPKLLIFKASSLESGVPSRFSGSGSGTDFTLTISSLQPDDFATYYCQQYNSYSRTFGQGTKVDIK | 86% | 0.17 nM | 2.49 nM | 0.000744 s⁻¹ | 299000 M⁻¹ s⁻¹ | 16 min | 4.65 nM | 0.000882 s⁻¹ | 190000 M⁻¹ s⁻¹ | 13 min | 7.4e-10 M | 5.2e-10 M | 8.49 nM | 0.00335 s⁻¹ | 394000 M⁻¹ s⁻¹ | 3 min | 0.686 nM | 0.000215 s⁻¹ | 314000 M⁻¹ s⁻¹ | 54 min | Kd [7]: 9.26 nM; koff [7]: 0.00345 s⁻¹; kon [7]: 372000 M⁻¹ s⁻¹; t1/2 [7]: 3 min; Kd (human PDGFRb.hFc [8]): 2.08 nM; koff (human PDGFRb.hFc [8]): 0.000741 s⁻¹; kon (human PDGFRb.hFc [8]): 356000 M⁻¹ s⁻¹; t1/2 (human PDGFRb.hFc [8]): 16 min |
| H4H3095S (antibody, human IgG4, V domains shown, human IgG4 Fc (H4H prefix)) VH: EVQLVESGGGLVQPGGSLRLSCGASGFTFSSYWMTWVRQAPGKGLEWVGNINQDGSEKYSVDSVKGRFTISRDNAKNSLYLQMNRVRAEDTAVYYCSRDLVPPRQGDNYYYFGMDVWGLGTTVTVSS VL: DIQMTQSPSTLSASVGDRVIITCRASQNINNWLAWYQQQPGKAPKLLIYEASSLESGVPSRFSGSGSGTEFTLTIGSLQPDDFATYYCQHYNSYSRTFGQGTKVDIK | 82% | 1.4 nM | 4.78 nM | 0.00136 s⁻¹ | 285000 M⁻¹ s⁻¹ | 8 min | 8.5 nM | 0.00175 s⁻¹ | 207000 M⁻¹ s⁻¹ | 7 min | 6.1e-10 M | 8.2e-10 M | 13.8 nM | 0.00624 s⁻¹ | 452000 M⁻¹ s⁻¹ | 2 min | 0.72 nM | 0.000232 s⁻¹ | 321000 M⁻¹ s⁻¹ | 50 min | Kd [7]: 33.3 nM; koff [7]: 0.00797 s⁻¹; kon [7]: 239000 M⁻¹ s⁻¹; t1/2 [7]: 1.5 min; Kd (human PDGFRb.hFc [8]): 1.67 nM; koff (human PDGFRb.hFc [8]): 0.00071 s⁻¹; kon (human PDGFRb.hFc [8]): 425000 M⁻¹ s⁻¹; t1/2 (human PDGFRb.hFc [8]): 16 min |
